Source: patent US20080118919A1

Target: B42 activation domain-EE34 prey fusion protein (yeast, pJG4-5)
Assay: cell-based or functional assay

β-glucuronidase reporter activity with MU-gluc substrate, combination 6 relative to combination 5, yeast two-hybrid (fold higher than combination 5): 10
Substance: λ cI-RR34 bait fusion protein (from UniProt P03034 1-237)
